Columns and labels:
[1] = target: Toll-like receptor-7 (TLR7) (murine) (UniProt P58681); assay: cell-based or functional assay
[2] = tested on: Murine macrophage lines (RAW264.7, J774.A1 or RAW264NO-); assay: Phagocytosis assay in vitro (uptake of Alexa Fluor 488-labeled particles); type: cell-based
Experimental: Phagocytosis Assay in vitro. RAW 264.7, RAW264.7 (NO-) and J774A.1 cells were cultured in DMEM or RPMI (RAW NO-) with 10% FCS, harvested, and washed. 3×10^5 cells/well were incubated in serum-free Earle's minimal essential medium (EMEM) in a 24-well plate for 1 hour at 37° C. Alexa Fluor® 488-labeled particles (inert polystyrene microspheres; or yeast, Saccharomyces cerevisiae or Gram-negative bacteria, Escherichia coli, 40 particles/macrophage) were added and co-incubated in a dark environment for 60 minutes in serum free EMEM with or without HSPs, LPS, or control proteins. At the end of 60 minutes incubation, the plate was covered in a dark container on ice. Specific measures were taken to exclude the fluorescence that resulted from particles that were outside of the cell or sticking to the surface of the cell. […] Specifically, trypan blue (0.8 mg/ml) was added for 60 seconds and plates were analyzed immediately using FluorImager SI (Molecular Dynamics/Amersham). Since the emission of Alexa Fluor® 488, about 519 nm at an excitation of about 490 nm, falls within the absorbance range of trypan blue (475-675 nm), the fluorescence of the sample only represents the intracellular fluorescence. External or surface-bound fluorescence is quenched. Using Student's t test, the results were analyzed and P-values were calculated.
HSP-mediated phagocytosis was quantified by measuring the internalized fluorescence measured by FluorImager SI and Relative Mean Fluorescence Intensity (RMFI) was compared between the treatment groups (as indicated). All the treatment groups were compared to medium alone using the Student's t test and significance denoted by P<0.01. The error bar represents one standard deviation. The results shown are a cumulative analysis of 3 experiments, 3 wells/group.

[3] = tested on: macrophages (TNF-α release); assay: TNF-α release by LPS-treated macrophages in presence or absence of serum; type: cell-based; settings: serum-free conditions
Experimental: HSP70 used in all assays was purified using LPS-free sterile packaged plastic ware, baked glass ware (420° F. for 4 hours) and using endotoxin-free culture grade reagents to minimize inadvertent LPS contamination. Further, LPS levels and activity in the purified HSPs were quantified and confirmed to be <1 EU/mg of protein. Next, HSPs and LPS were compared for their influence on phagocytosis in presence or absence of serum. These conditions were specifically chosen since LPS-binding protein (LBP), an essential mediator for LPS function, is not present in serum-free conditions. As a control, macrophages were treated with LPS in presence or absence of serum and their ability to elicit TNF-α release was compared (FIG. 3A). […] Briefly, macrophages were treated with HSP70 (100 μg/ml) or LPS (different doses ranging 25 ng-1 μg/ml) in serum-free conditions for 1 hour and a phagocytosis assay was performed. […] The error bar is one standard deviation. The results shown are a cumulative analysis of 3 experiments, 3 wells/group.

[4] = tested on: full thickness surgical wounds on the dorsum of BALB/cJ mice; assay: Closure of full thickness surgical wounds, percent wound closure; type: in vivo
Experimental: Surgery and Treatment. Mice were anesthetized using Ketamine (2.0 mg/mouse) and Xylazine (0.1 mg/mouse) were administered intraperitoneally (IP) and the dorsal skin was shaved. After sterile prepping of the area, a full thickness circular wound, 8 mm diameter, was made on the dorsal skin using a disposable biopsy punch (Miltex Inc, York, Pa.) on the midline of the dorsum approximately at the iliac crest. The mice were then randomly assigned into the treatment groups. Initial wound measurements were performed while the mice were still anesthetized. Mice were then treated on days 0, 2, 4, and 6 unless otherwise specified. All agents used as treatment were diluted in 0.5 ml of PBS and injected using a 25-gauge needle in the subcutaneous space in the nape of the neck. The surgical procedures, post-operative monitoring, and safety concerns were approved by the Institutional Animal Care and Usage Committee.
Measurements and Analysis. Wound healing of open wounds is a complex process with many parameters to consider. […] The wound surface area was determined by measuring the craniocaudal and lateromedial distances using vernier calipers in perpendicular axis on days 0, 2, 4, 6, 9, and 11 postoperatively unless noted. Changes in wound area were expressed as percent wound closure. Wound closure data was plotted as average percent wound closure ±SEM unless otherwise noted. All calculations and data analysis were performed using Microsoft Excel and Sigma Plot. Sigma Plot was used to perform Student's t-tests for reported P values.
Full thickness surgical wounds were created on the dorsum of BALB/cJ mice as described in Methods. Wounds were made on day 0. Subsequently, the wounds were treated with exogenous injections of HSP70, HSP90, gp96 (30 μg/dose) or buffer administered subcutaneously (SC) on days 0, 2, 4 and 6 following surgery (FIG. 6A). The wounds were measured on days 0, 2, 4, 6, 9, 11 unless otherwise noted. Wounds were measured serially, percent wound closure was calculated and plotted against time in order to quantitate the rate of healing by secondary intention. […] Data is plotted as average percent wound closure ±SEM on days indicated. Two mice from each treatment group (PBS (n=12), HSP70 (n=11), HSP90 (n=12), and gp96 (n=11)) were sacrificed for histology on days 2, 4, and 6 post-surgery (data not shown). The P values obtain using the Student's t-test.
Results are of average percent wound closure ±SEM on day 2 post surgery. The *P values were obtained using the Student's t-test by comparing HSP treatment to all of the non-HSP control treatments. The least significant P value was reported. […] Doses higher than 50 μg/dose were not tested.

[5] = tested on: full thickness wounds of naïve mice; assay: Adoptive transfer of pre-treated RAW 264.7 macrophages into wounded mice, wound closure; type: in vivo; settings: 400,000 macrophages pre-treated at 30 μg/dose; day 2 post surgery
Experimental: Macrophage Cell Culture, Pre-treatment, and Adoptive Transfer. RAW 264.7 macrophages (ATCC) were grown as described by ATCC. Cells were harvested by gently scraping them from the cell culture flasks, centrifuged and washed once in cultured grade PBS. […] They were then washed 3 times with PBS, and were re-suspended to achieve a concentration of 400,000, 40,000, or 4,000 cells per 0.5 ml PBS. Adoptive transfer of these cells was performed by subcutaneous injections in the nape of the neck using a 25-gauge needle in mice that were wounded as previously described. Adoptive transfers were given on days 0, 2 and 4 post-operatively.
Macrophages were treated in vitro with either HSPs or non-HSP controls and transferred into naïve wounded mice (as described in Materials and Methods) to test if HSPs could in part mediate some of their activity through macrophages. […] Data is plotted as average percent wound closure ±SEM on day 2. *P values were obtained using the Student's t-test by comparing HSP treatment to all of the non-HSP control treatments. The least significant P value was reported.
Titratability of adoptive transfer was examined by transferring 4,000, 40,000 or 400,000 macrophages pre-treated as described in Materials and Methods.

[6] = tested on: RAW 264.7 macrophages; assay: In vitro macrophage phagocytosis of wound debris; type: cell-based, murine; settings: RAW264.7, labeled wound debris
[7] = tested on: TNF-α; assay: Wound lysate cytokine production (cytometric bead assay), TNF-α; type: in vivo, mice; settings: SC 30 μg dose
Experimental: Wound and Skin Lysate Cytokine Production. Mice were wounded and treated as stated previously. Wounds were harvested 24 hours after treatment, pulverized in 5 ml of PBS and large debris was removed by straining the wound lysate through a […] mesh strainer. The soluble fraction was then centrifuged for 20 minutes at 14,000 rpm. Protein concentration was then assessed by Bradford assay. Skin samples were taken and processed in the same manner. 250 μg of each sample was then tested for the presence of monocyte chemotactic peptide-1 (MCP-1), tumor necrosis factor-α (TNF-α), and interleukin 6 (IL-6) using the BD Biosciences cytometric bead assay (CBA) mouse inflammatory kit (BD Biosciences Pharmingen, San Diego, and CA.) following the manufacture's protocol.
The wounds were lysed and MCP-1, TNFα and IL-6 levels were quantified (pg/ml of 250 μg of protein). Each sample was tested in duplicate. *P values are the significant difference of cytokines found in wound lysate compared to skin lysate in a treatment group. **P values are the significant differences of cytokines found in PBS treated mice wound lysate compared to the treatment group wound lysate.

Chain of Toll-like receptor-7 (TLR7) (murine) (P58681 27-1050): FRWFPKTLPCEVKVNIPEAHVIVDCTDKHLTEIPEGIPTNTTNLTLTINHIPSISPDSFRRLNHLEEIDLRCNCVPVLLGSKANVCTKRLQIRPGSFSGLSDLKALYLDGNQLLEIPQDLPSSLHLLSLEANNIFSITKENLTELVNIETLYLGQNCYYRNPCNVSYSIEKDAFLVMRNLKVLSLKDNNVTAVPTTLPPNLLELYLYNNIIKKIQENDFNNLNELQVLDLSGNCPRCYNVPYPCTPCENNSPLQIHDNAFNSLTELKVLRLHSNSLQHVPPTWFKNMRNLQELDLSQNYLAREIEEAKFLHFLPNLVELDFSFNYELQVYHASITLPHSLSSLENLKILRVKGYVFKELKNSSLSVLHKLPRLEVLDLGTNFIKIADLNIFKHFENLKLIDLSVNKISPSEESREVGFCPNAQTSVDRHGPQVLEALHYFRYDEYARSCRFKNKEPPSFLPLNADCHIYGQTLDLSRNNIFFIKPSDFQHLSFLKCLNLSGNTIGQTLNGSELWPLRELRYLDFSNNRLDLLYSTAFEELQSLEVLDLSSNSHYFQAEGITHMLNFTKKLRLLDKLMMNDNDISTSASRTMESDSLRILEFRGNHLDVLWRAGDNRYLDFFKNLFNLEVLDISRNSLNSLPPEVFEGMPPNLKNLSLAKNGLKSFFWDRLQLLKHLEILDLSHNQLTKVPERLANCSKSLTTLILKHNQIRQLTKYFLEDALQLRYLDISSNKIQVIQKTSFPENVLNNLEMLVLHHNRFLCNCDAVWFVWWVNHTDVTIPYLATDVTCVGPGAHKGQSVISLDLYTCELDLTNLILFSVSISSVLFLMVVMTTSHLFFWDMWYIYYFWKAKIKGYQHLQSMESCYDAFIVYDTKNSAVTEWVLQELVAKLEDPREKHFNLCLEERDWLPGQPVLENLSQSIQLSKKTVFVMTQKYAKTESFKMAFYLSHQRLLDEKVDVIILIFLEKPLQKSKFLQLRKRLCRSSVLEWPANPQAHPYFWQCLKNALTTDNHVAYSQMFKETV

HSP70 purified from murine livers (from UniProt P17879 2-642)
decrease in phagocytic activity of RAW264.7 cells treated with HSP70 in the presence of known TLR7-ligands, compared with HSP70 alone [1]: 45 to 65%

lipopolysaccharide [LPS, reference compound]
ability to enhance phagocytosis ([2]; serum-free conditions, 1 hour, HSP70 100 μg/ml, LPS 25 ng-1 μg/ml, heating 100° C. for 20 minutes): unable to enhance phagocytosis in serum-free conditions
stimulation of macrophages (TNF-α release) [3]: ineffective at stimulating macrophages
wound healing on day 2 ([4]; 30 μg/dose, day 2 post surgery): 25%
wound closure of non-HSP controls compared to PBS control ([4]; day 2 post surgery): not significantly different to the PBS control
benefit to the wounds ([4]; same doses as HSPs and significantly smaller quantities): not beneficial to the wounds at any of the doses tested
wound healing on day 2 after adoptive transfer of pre-treated macrophages [5]: 21%
mean fluorescence intensity compared to medium control [6]: not significantly different to the medium control

B1: gp96: heat shock protein (HSP90 family, endoplasmic reticulum) purified from murine livers (protein, UniProt P08113 22-802, looked up)
Endoplasmin: DDEVDVDGTVEEDLGKSREGSRTDDEVVQREEEAIQLDGLNASQIRELREKSEKFAFQAEVNRMMKLIINSLYKNKEIFLRELISNASDALDKIRLISLTDENALAGNEELTVKIKCDKEKNLLHVTDTGVGMTREELVKNLGTIAKSGTSEFLNKMTEAQEDGQSTSELIGQFGVGFYSAFLVADKVIVTSKHNNDTQHIWESDSNEFSVIADPRGNTLGRGTTITLVLKEEASDYLELDTIKNLVRKYSQFINFPIYVWSSKTETVEEPLEEDEAAKEEKEESDDEAAVEEEEEEKKPKTKKVEKTVWDWELMNDIKPIWQRPSKEVEEDEYKAFYKSFSKESDDPMAYIHFTAEGEVTFKSILFVPTSAPRGLFDEYGSKKSDYIKLYVRRVFITDDFHDMMPKYLNFVKGVVDSDDLPLNVSRETLQQHKLLKVIRKKLVRKTLDMIKKIADEKYNDTFWKEFGTNIKLGVIEDHSNRTRLAKLLRFQSSHHSTDITSLDQYVERMKEKQDKIYFMAGSSRKEAESSPFVERLLKKGYEVIYLTEPVDEYCIQALPEFDGKRFQNVAKEGVKFDESEKTKESREATEKEFEPLLNWMKDKALKDKIEKAVVSQRLTESPCALVASQYGWSGNMERIMKAQAYQTGKDISTNYYASQKKTFEINPRHPLIRDMLRRIKEDEDDKTVMDLAVVLFETATLRSGYLLPDTKAYGDRIERMLRLSLNIDPEAQVEEEPEEEPEDTSEDAEDSEQDEGEEMDAGTEEEEEETEKESTEKDEL
modifications: complexed with endogenous peptides
notes: heat shock protein (HSP90 family, endoplasmic reticulum) purified from murine livers
uptake of microbial or non-microbial materials as compared to control proteins or buffer ([2]; HSPs 100 μg/ml, P<0.01 vs medium alone): increase in uptake
wound closure compared to controls ([4]; 5 μg/dose and 50 μg/dose, day 2): significant wound closure
wound healing at Day 11 ([4]; 30 μg/dose SC on days 0, 2, 4 and 6): completely healed
dose with the most significant difference in wound closure ([4]; doses 5, 30, 50 μg/dose tested): 30 μg/dose
TNF-α content of wounds compared to LPS or MSA [7]: not significantly elevated
TNF-α content of wounds compared to buffer group [7]: significantly increased

Source: patent US20070098735A1, “Methods for the Elimination of Pathogens and Other Particulate Agents” (priority 2005, published 2007)
